Results from US20160030544A1 (ISIS INNOVATION, published 2016).

Assays:
[1] = molecular target: T1, fH6-7 (factor H CCP domains 6-7) (UniProt P08603 321-443); assay: SPR, Biacore 3000, protein on CM5 chip, fH6-7 as analyte
T1 construct: domain: fH6-7; Analyte in SPR, 0.5 nM-32 nM
T1 sequence: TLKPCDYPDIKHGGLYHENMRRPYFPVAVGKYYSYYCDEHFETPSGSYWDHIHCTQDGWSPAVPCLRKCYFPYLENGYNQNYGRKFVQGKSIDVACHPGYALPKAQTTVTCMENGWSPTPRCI

[2] = molecular target: T1, fH6-7 (factor H CCP domains 6-7); assay: SPR, Biacore 3000, protein on CM5 chip
[3] = molecular target: T2, factor H (fH), full length (human, UniProt P08603 19-1231); assay: ELISA, coated protein, purified full length fH
T2 construct: mature; Far western used normal human serum diluted 1:100 as the source of fH; also called full length fH; purified full length fH
T2 sequence (P08603 19-1231): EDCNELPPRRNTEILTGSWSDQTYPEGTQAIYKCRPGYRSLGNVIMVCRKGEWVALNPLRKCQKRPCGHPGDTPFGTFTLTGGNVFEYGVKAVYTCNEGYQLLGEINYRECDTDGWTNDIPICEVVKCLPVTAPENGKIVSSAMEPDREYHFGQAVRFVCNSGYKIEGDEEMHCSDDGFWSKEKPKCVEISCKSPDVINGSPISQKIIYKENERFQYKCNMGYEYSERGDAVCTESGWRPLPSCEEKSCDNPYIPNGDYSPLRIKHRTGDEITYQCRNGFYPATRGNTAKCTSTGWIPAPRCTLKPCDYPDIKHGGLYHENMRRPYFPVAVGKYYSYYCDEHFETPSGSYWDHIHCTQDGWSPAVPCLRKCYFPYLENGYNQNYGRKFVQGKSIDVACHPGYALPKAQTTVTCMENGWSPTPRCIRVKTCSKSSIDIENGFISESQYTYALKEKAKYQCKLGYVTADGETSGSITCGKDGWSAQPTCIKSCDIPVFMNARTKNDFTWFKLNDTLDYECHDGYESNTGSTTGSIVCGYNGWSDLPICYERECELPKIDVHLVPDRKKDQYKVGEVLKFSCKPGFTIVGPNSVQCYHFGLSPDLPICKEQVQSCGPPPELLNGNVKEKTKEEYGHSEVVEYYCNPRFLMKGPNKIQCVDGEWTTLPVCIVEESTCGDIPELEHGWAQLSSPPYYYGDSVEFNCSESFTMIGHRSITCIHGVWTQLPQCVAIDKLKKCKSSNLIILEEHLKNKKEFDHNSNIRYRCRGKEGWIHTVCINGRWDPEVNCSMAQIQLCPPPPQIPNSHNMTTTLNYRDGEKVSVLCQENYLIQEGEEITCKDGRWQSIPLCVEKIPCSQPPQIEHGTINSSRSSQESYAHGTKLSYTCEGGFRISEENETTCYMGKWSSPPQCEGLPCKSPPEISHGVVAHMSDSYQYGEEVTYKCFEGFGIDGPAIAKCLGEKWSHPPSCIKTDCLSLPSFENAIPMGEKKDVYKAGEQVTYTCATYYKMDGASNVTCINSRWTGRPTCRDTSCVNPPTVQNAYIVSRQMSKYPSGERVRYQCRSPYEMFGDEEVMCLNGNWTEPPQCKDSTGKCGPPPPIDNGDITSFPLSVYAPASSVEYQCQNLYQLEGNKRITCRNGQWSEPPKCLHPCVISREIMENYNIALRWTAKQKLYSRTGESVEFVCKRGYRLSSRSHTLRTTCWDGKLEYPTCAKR

Binder | Kd [1] [nM] | binding result [2] | binding result [3]
Ghfp^M4 (R288H) (other, Text prints R288H (numbering according to fHbp V1.1 structure)) DKGLKSLTLEASIPQNGTLTLSAQGAEKTFKAGGKDNSLNTGKLKNDKISRFDFVQKIEVDGQTITLASGEFQIYKQDHSAVVALRIEKINNPDKIDSLINQRSFLVSDLGGEHTAFNQLPDGKAEYHGKAFSSDDADGKLTYTIDFAAKQGHGKIEHLKTPEQNVELASAELKADEKSHAVILGDTRYGGEEKGTYHLALFGDRAQEIAGSATVKIGEKVHEIGIADKQ | 16 |  | 
Ghfp^M5 (D318G) (other, Text prints D318G (fHbp V1.1 structure numbering)) DKGLKSLTLEASIPQNGTLTLSAQGAEKTFKAGGKDNSLNTGKLKNDKISRFDFVQKIEVDGQTITLASGEFQIYKQDHSAVVALRIEKINNPDKIDSLINQRSFLVSDLGGEHTAFNQLPDGKAEYHGKAFSSDDADGKLTYTIDFAAKQGHGKIEHLKTPEQNVELASAELKADEKSHAVILGDTRYGGEEKGTYRLALFGDRAQEIAGSATVKIGEKVHEIGIAGKQ |  | no binding (tested: fH6-7 0.5 nM-32 nM) | no binding
Ghfp^M4-5 (R288H/D318G) (other, Text prints R288H/D318G (fHbp V1.1 structure numbering)) DKGLKSLTLEASIPQNGTLTLSAQGAEKTFKAGGKDNSLNTGKLKNDKISRFDFVQKIEVDGQTITLASGEFQIYKQDHSAVVALRIEKINNPDKIDSLINQRSFLVSDLGGEHTAFNQLPDGKAEYHGKAFSSDDADGKLTYTIDFAAKQGHGKIEHLKTPEQNVELASAELKADEKSHAVILGDTRYGGEEKGTYHLALFGDRAQEIAGSATVKIGEKVHEIGIAGKQ | 2 |  | 
